The data set deals with TtCsm complex (Thermus thermophilus) (UniProt Q53W19+Q53WF6+Q53WF5+Q53WF4+Q53W18). The experiment in a line: cleavage_in_vitro.

“crRNA targeting SARS-CoV-2 N gene (N1) ; SARS-CoV-2 N1 target RNA” had an activity of more than 95 % cleaved.

For the origin of these results see US20240182988.
